Positions of bridges follow the written chain, without caps; N, C: chain ends. No end group written: not given here. *: point of attachment. NHNH2 = NN*
These binders were tested against REFACTO® (recombinant factor VIII-like polypeptide consisting of amino acids 1-743 and 1638 through 2332 of human factor VIII) (human) (UniProt P00451) (assay: phage ELISA, ratio with target to without target).
Chain of REFACTO® (recombinant factor VIII-like polypeptide consisting of amino acids 1-743 and 1638 through 2332 of human factor VIII) (human) (P00451 20-762, chain 1 of 2): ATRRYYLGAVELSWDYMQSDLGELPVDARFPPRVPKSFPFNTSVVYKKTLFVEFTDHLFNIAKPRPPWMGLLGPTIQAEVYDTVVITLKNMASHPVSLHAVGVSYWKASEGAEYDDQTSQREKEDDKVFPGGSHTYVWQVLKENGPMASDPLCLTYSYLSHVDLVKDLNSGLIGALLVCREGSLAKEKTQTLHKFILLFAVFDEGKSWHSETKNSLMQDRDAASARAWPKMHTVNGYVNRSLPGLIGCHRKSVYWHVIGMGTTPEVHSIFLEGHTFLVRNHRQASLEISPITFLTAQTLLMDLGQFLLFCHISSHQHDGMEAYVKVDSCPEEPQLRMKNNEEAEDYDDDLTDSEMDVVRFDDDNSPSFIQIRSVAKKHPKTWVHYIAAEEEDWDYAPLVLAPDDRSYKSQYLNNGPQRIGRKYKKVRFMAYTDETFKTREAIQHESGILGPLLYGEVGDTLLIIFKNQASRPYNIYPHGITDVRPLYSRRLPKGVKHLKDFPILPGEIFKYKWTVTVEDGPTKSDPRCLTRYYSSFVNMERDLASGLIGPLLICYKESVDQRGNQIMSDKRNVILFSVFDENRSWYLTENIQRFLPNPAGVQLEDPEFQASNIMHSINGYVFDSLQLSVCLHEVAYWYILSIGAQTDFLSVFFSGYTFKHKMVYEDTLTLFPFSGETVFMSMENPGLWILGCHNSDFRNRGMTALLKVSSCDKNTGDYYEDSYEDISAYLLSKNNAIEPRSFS
Chain of REFACTO® (recombinant factor VIII-like polypeptide consisting of amino acids 1-743 and 1638 through 2332 of human factor VIII) (human) (P00451 1657-2351, chain 2 of 2): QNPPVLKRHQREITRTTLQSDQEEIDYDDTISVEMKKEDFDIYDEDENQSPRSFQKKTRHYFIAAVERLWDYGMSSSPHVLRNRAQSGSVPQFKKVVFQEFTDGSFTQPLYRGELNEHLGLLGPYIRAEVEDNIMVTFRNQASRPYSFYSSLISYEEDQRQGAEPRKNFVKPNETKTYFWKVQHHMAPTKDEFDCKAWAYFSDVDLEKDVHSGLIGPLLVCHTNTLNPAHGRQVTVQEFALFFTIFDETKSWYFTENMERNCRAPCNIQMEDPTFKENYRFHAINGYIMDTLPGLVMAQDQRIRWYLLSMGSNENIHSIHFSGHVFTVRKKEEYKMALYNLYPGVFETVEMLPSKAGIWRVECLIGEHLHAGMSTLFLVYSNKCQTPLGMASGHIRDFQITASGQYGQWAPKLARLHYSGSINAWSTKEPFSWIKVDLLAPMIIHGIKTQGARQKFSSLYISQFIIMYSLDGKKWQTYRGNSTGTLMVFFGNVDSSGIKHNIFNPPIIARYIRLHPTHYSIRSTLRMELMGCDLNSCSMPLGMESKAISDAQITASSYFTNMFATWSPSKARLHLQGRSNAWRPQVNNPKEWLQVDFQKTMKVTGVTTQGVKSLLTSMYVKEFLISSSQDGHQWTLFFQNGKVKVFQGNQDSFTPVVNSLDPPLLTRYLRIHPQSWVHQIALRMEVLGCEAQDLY
With HACGSWFRPCHA [TN8 phage isolate 07 (SEQ ID NO: 15)] the R (ELISA score with target / ELISA score without target) was 6. For FCWVFAFDHCH [TN9 phage isolates 04 (B04-TN9) and 01 displaying Phe-Cys-Trp-Val-Phe-Ala-Phe-Asp-His-Cys-His], the R (ELISA score with target / ELISA score without target) was 24. In the case of HLCGAWFRPCDA [TN8 phage isolate 02 (E02-TN8, SEQ ID NO: 16)], the R (ELISA score with target / ELISA score without target) is reported as 6. Binder FCHVFNFVHCS [TN9 phage isolate 01 (SEQ ID NO: 31)] has a R (ELISA score with target / ELISA score without target) of 8. FCWVFPFNHCS [TN9 phage isolate 12 (SEQ ID NO: 28)] showed a R (ELISA score with target / ELISA score without target) of 18. FGCSWLFPCPF [TN7 phage isolate A08] showed a R (ELISA score with target / ELISA score without target) of 8. FCWVFNFSHCS [TN9 phage isolate 03 (SEQ ID NO: 26)] gave a R (ELISA score with target / ELISA score without target) of 24. For HPCGSWFRPCFH [TN8 phage isolate 02 (SEQ ID NO: 14)], the R (ELISA score with target / ELISA score without target) was 16. For HRCGSWLHPCLA [TN8 phage isolate 11/G10 (A11/G10-TN8)], the R (ELISA score with target / ELISA score without target) was 6. Work on HPCGAWLRPCYN [TN8 phage isolate 08 (SEQ ID NO: 20)] yielded a R (ELISA score with target / ELISA score without target) of 20. Binder FCWVFPFHHCF [TN9 phage isolate 06 (D06-TN9)] has a R (ELISA score with target / ELISA score without target) of 6. HPCGSWLHPCAA [TN8 phage isolate 04 (SEQ ID NO: 12)] gave a R (ELISA score with target / ELISA score without target) of 6. HPCGSWFNPCAH [TN8 phage isolate 02 (SEQ ID NO: 13)] was tested, and the R (ELISA score with target / ELISA score without target) was 8. Work on HLCFAWFRPCDA [TN8 phage isolate 12 (SEQ ID NO: 17)] yielded a R (ELISA score with target / ELISA score without target) of 8. In the case of HPCGSWLRPCLH [TN8 phage isolate 10 (C10-TN8)], the R (ELISA score with target / ELISA score without target) is reported as 16. In the case of RLCSWVSPCSA [TN7 phage isolate C5/G10], the R (ELISA score with target / ELISA score without target) is reported as 10. In the case of HSCGSWLFPCFA [TN7 phage isolate A06], the R (ELISA score with target / ELISA score without target) is reported as 10. For FCWVFPFNHCD [TN9 phage isolate 02 (SEQ ID NO: 27)], the R (ELISA score with target / ELISA score without target) was 8. Binder FCWVFQFRHCH [TN9/1 phage isolate … (SEQ ID NO: 77)] has a R (ELISA score with target / ELISA score without target) of 8. In the case of RLCSWISPCSA [TN7 phage isolate D04], the R (ELISA score with target / ELISA score without target) is reported as 6. Work on FCWVFPFQHCA [TN9 phage isolate 09 (E09-TN9)] yielded a R (ELISA score with target / ELISA score without target) of 24. In the case of FCWVFNWVHCD [TN9/1 phage isolate … (SEQ ID NO: 75)], the R (ELISA score with target / ELISA score without target) is reported as 14.

The binders below were run against REFACTO® (recombinant factor VIII-like polypeptide consisting of amino acids 1-743 and 1638 through 2332 of human factor VIII) (human) (UniProt P00451) (assay: phage ELISA on the factor VIII target (REFACTO), anti-M13-HRP).
For HACGSWFRPCHA [TN8 phage isolate 07 (SEQ ID NO: 15)], the ELISA signal was 0.4 OD630. HLCGAWFRPCDA [TN8 phage isolate 02 (E02-TN8, SEQ ID NO: 16)] gave an ELISA signal of 0.4 OD630. With FCHVFNFVHCS [TN9 phage isolate 01 (SEQ ID NO: 31)] the ELISA signal was 0.5 OD630. FCWVFPFNHCS [TN9 phage isolate 12 (SEQ ID NO: 28)] showed an ELISA signal of 1 OD630. For FGCSWLFPCPF [TN7 phage isolate A08], the ELISA signal was 0.4 OD630. HGCGAWFRPCHA [TN8 phage isolate 01 (SEQ ID NO: 18)] showed an ELISA signal of 0.2 OD630. FCWVFNFSHCS [TN9 phage isolate 03 (SEQ ID NO: 26)] showed an ELISA signal of 1.1 OD630. For RGCGSWLRPCLD [TN8 phage isolate 05 (SEQ ID NO: 11)], the ELISA signal was 0.2 OD630. HPCGSWFRPCFH [TN8 phage isolate 02 (SEQ ID NO: 14)] was tested, and the ELISA signal was 0.7 OD630. Binder HRCGSWLHPCLA [TN8 phage isolate 11/G10 (A11/G10-TN8)] has an ELISA signal of 0.3 OD630. HPCGAWLRPCYN [TN8 phage isolate 08 (SEQ ID NO: 20)] gave an ELISA signal of 1 OD630. FCHVFHFSHCD [TN9 phage isolate 01 (SEQ ID NO: 24)] was tested, and the ELISA signal was 0.2 OD630. FCWVHPFAHCL [TN9 phage isolate 02 (SEQ ID NO: 23)] was tested, and the ELISA signal was 0.2 OD630. Work on FCWVFPFHHCF [TN9 phage isolate 06 (D06-TN9)] yielded an ELISA signal of 0.3 OD630. HPCGSWLHPCAA [TN8 phage isolate 04 (SEQ ID NO: 12)] showed an ELISA signal of 0.3 OD630. Work on HPCGSWFNPCAH [TN8 phage isolate 02 (SEQ ID NO: 13)] yielded an ELISA signal of 0.3 OD630. HLCFAWFRPCDA [TN8 phage isolate 12 (SEQ ID NO: 17)] was tested, and the ELISA signal was 0.4 OD630. With HPCGSWLRPCLH [TN8 phage isolate 10 (C10-TN8)] the ELISA signal was 1 OD630. Binder RLCSWVSPCSA [TN7 phage isolate C5/G10] has an ELISA signal of 0.5 OD630. Work on HPCGAWFNPCPR [TN8 phage isolate 01 (SEQ ID NO: 19)] yielded an ELISA signal of 0.2 OD630. Binder HSCGSWLFPCFA [TN7 phage isolate A06] has an ELISA signal of 0.5 OD630. Binder FCWVFPFNHCD [TN9 phage isolate 02 (SEQ ID NO: 27)] has an ELISA signal of 0.4 OD630. Work on FCHVFPFLHCD [TN9 phage isolate 11 (SEQ ID NO: 32)] yielded an ELISA signal of 0.2 OD630. With FHCIGVWFCLH [TN7 phage isolate A09] the ELISA signal was 0.1 OD630. With PHCNWLFPCSL [TN7 phage isolate D03] the ELISA signal was 0.2 OD630. Work on RLCSWISPCSA [TN7 phage isolate D04] yielded an ELISA signal of 0.3 OD630. In the case of FCWVFPFQHCA [TN9 phage isolate 09 (E09-TN9)], the ELISA signal is reported as 1.1 OD630.

What follows are binders tested against REFACTO® (recombinant factor VIII-like polypeptide consisting of amino acids 1-743 and 1638 through 2332 of human factor VIII) (human) (UniProt P00451) (assay: batch binding to peptide beads; fractions by sandwich ELISA; % of input).
Binder AEGTGDFCWVFAFDHCHDPGPEGGGS-NHNH2 (disulfide 8-16) [CS-458 (…-NHNH2)] has a % of input recovered in Eluate of 47%, a % of input recovered in Unbound of 20% and a % of input recovered in Wash of 10%. AEGTGDFGCSWLFPCPFDPGPEGGGS-NHNH2 (disulfide 9-15) [CS-456 (…-NHNH2)] gave a % of input recovered in Eluate of 24%, a % of input recovered in Unbound of 47% and a % of input recovered in Wash of 20%. AEGTGDHLCGAWFRPCDADPGPEGGGS-NHNH2 (disulfide 9-16) [CS-454 (…-NHNH2)] gave a % of input recovered in Eluate of 49%, a % of input recovered in Unbound of 24% and a % of input recovered in Wash of 12%.

These binders were tested against REFACTO® (recombinant factor VIII-like polypeptide consisting of amino acids 1-743 and 1638 through 2332 of human factor VIII) (human) (UniProt P00451) (assay: batch binding to peptide beads; fractions by sandwich ELISA; % of total recovered).
With AEGTGDFCWVFAFDHCHDPGPEGGGS-NHNH2 (disulfide 8-16) [CS-458 (…-NHNH2)] the % of total recovered in Eluate was 27%, the % of total recovered in Unbound was 59% and the % of total recovered in Wash was 14%.

These binders were tested against REFACTO® (recombinant factor VIII-like polypeptide consisting of amino acids 1-743 and 1638 through 2332 of human factor VIII) (human) (UniProt P00451) (assay: affinity column, peptide on Toyopearl Formyl 650-M; fraction quantified by RP-HPLC).
With AEGTGDFCWVFAFDHCHDPGPEGGGS-NHNH2 (disulfide 8-16) [CS-458 (…-NHNH2)] the % recovery in Flow was 1.8%, the % recovery in elution A was 54.3% and the % recovery in elution B was 0%. It also gave a % recovery in pH2 of 0%. Work on AEGTGDHPCGSWLRPCLHDPGPEGGGS-NHNH2 (disulfide 9-16 (inferred)) [CS-453 (…-NHNH2)] yielded a % recovery in Flow of 0%, a % recovery in elution A of 43.2% and a % recovery in elution B of 0%. For the same binder, the % recovery in pH2 was 0%. For AEGTGDFGCSWLFPCPFDPGPEGGGS-NHNH2 (disulfide 9-15) [CS-456 (…-NHNH2)], the % recovery in Flow was 3.4%, the % recovery in elution A was 44.8% and the % recovery in elution B was 0%. For the same binder, the % recovery in pH2 was 0%. AEGTGDHLCGAWFRPCDADPGPEGGGS-NHNH2 (disulfide 9-16) [CS-454 (…-NHNH2)] gave a % recovery in Flow of 2.5%, a % recovery in elution A of 45.1% and a % recovery in elution B of 0%. It also gave a % recovery in pH2 of 0%. AEGTGDFCWVFPFQHCADPGPEGGGS-NHNH2 (disulfide 8-16 (inferred)) [CS-459 (…-NHNH2)] gave a % recovery in Flow of 1.6%, a % recovery in elution A of 42.1% and a % recovery in elution B of 0%. It also gave a % recovery in pH2 of 0%. AEGTGDFHCIGVWFCLHDPGPEGGGS-NHNH2 (disulfide 9-15 (inferred)) [CS-455 (…-NHNH2)] showed a % recovery in Flow of 65.8%, a % recovery in elution A of 1.4% and a % recovery in elution B of 0%. The % recovery in pH2 was 0%. In the case of AEGTGDFCWVFPFHHCFDPGPEGGGS-NHNH2 (disulfide 8-16 (inferred)) [CS-460 (…-NHNH2)], the % recovery in Flow is reported as 24.6%, the % recovery in elution A is reported as 28.8% and the % recovery in elution B is reported as 0%. It also gave a % recovery in pH2 of 0%.

What follows are binders tested against REFACTO® (recombinant factor VIII-like polypeptide consisting of amino acids 1-743 and 1638 through 2332 of human factor VIII) (human) (UniProt P00451) (assay: affinity column, peptide on Toyopearl Formyl 650-M; fraction quantified by factor VIII activity assay).
AEGTGDFCWVFAFDHCHDPGPEGGGS-NHNH2 (disulfide 8-16) [CS-458 (…-NHNH2)] showed a % recovery in Flow of 1.4% and a % recovery in elution A of 55.6%. Binder AEGTGDHPCGSWLRPCLHDPGPEGGGS-NHNH2 (disulfide 9-16 (inferred)) [CS-453 (…-NHNH2)] has a % recovery in Flow of 0% and a % recovery in elution A of 26.4%. With AEGTGDFGCSWLFPCPFDPGPEGGGS-NHNH2 (disulfide 9-15) [CS-456 (…-NHNH2)] the % recovery in Flow was 4.8% and the % recovery in elution A was 43%. Work on AEGTGDHLCGAWFRPCDADPGPEGGGS-NHNH2 (disulfide 9-16) [CS-454 (…-NHNH2)] yielded a % recovery in Flow of 2.2% and a % recovery in elution A of 42.4%. AEGTGDFCWVFPFQHCADPGPEGGGS-NHNH2 (disulfide 8-16 (inferred)) [CS-459 (…-NHNH2)] gave a % recovery in Flow of 6.4% and a % recovery in elution A of 31.2%. AEGTGDFHCIGVWFCLHDPGPEGGGS-NHNH2 (disulfide 9-15 (inferred)) [CS-455 (…-NHNH2)] showed a % recovery in Flow of 61.6% and a % recovery in elution A of 1.3%. AEGTGDFCWVFPFHHCFDPGPEGGGS-NHNH2 (disulfide 8-16 (inferred)) [CS-460 (…-NHNH2)] gave a % recovery in Flow of 28.4% and a % recovery in elution A of 0%.
